T1: membrane-bound full-length human HVEM on stable HVEM-transfected HEK293F cells (clone no. 128) (human, UniProt Q92956 39-283)
T1 construct: The same cDNA was also expressed on Sf9 insect cells; also called TNFRSF14; CD270
T1 sequence: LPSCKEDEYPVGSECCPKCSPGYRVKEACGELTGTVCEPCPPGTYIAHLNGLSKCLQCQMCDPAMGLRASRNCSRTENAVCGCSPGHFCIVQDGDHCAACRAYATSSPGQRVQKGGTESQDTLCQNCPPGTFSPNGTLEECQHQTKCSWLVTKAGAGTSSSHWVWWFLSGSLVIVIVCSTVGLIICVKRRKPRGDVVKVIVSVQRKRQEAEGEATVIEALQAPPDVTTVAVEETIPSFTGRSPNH

T2: membrane-bound 'CRD1 truncated' human HVEM on transiently transfected HEK293F cells (human, UniProt Q92956 76-283)
T2 construct: aa 1-19 are a mouse Ig signal peptide and are left out; Starts with CRD2; also called human HVEM deleted for CRD1; CRD1 truncated HVEM
T2 sequence: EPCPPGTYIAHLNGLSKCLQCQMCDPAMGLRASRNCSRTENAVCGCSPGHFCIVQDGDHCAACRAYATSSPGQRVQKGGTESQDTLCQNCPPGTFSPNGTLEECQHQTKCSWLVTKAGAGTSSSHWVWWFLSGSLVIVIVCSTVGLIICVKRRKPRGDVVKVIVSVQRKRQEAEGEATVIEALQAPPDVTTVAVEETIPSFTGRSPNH


How the values were obtained:
[1] = molecular target: T1, membrane-bound full-length human HVEM …; assay: FACS, biotinylated BTLA-Fc pre-bound, then Ab 20 µg/mL
Experimental: (§1) Generation of human ‘full-length’ HVEM-transfected HEK293F cells (clone no. 128) is described in Example 1a. Displacement of pre-bound soluble human BTLA, soluble human CD160, soluble human LIGHT, and soluble human TNFβ from surface human HVEM-transfected cells was analysed by FACS analysis. To this end, stable human full-length HVEM-transfected HEK293F cells were put at 10×10⁶ cells/mL in ice-chilled phosphate-buffered saline containing 0.1% BSA (Sigma)/0.05% NaN₃ (PBS/BSA/NaN₃) supplemented with 50 μg/mL human IgGs (blocking possible Fcγ receptors; Sigma) for 10 minutes at 4° C. Then, 10 μL/tube (i.e., 0.1×10⁶ cells) of these cells were incubated without or with 50 μL soluble biotinylated human BTLA-human Fcγ fusion protein (Sino Biological Inc) at 2 μg/mL/tube, with soluble his-tagged human CD160 (Sino Biological Inc) at 20 μg/mL/tube, with soluble his-tagged human LIGHT (Sino Biological Inc) at 2 μg/mL/tube, or with soluble biotinylated human TNFβ (Sino Biological Inc) at 0.2 μg/mL/tube in PBS/BSA/NaN₃ for 30 minutes at 4° C. After this (i.e., without washing), cells were subsequently incubated with 50 μL purified chimeric mouse/human anti-HVEM antibody at 20 μg/mL/tube or a human IgG4/κ (Sigma) negative isotype control at 20 μg/mL/tube for 30 minutes at 4° C. […] After extensive washing in PBS/BSA/NaN₃, cells were incubated with 1:200 diluted PE-conjugated streptavidin (detection CD160 and LIGHT; Jackson ImmunoResearch) for 30 minutes at 4° C. After extensive washing in PBS/BSA/NaN₃, cells were fixed in 4% formaldehyde in PBS/BSA/NaN₃ for 30 minutes at 4° C. Residual binding of ligands BTLA, CD160, LIGHT and TNFβ on membrane human HVEM was measured using a flow cytometer (model FACSCalibur; BD Biosciences).

[2] = molecular target: T1, membrane-bound full-length human HVEM …; assay: FACS, Ab 10 µg/mL then biotinylated TNFβ on HVEM-HEK293F
Experimental: (§2) Generation of human ‘full-length’ HVEM-transfected HEK293F cells (clone no. 128) is described in Example 1a. Binding of soluble human BTLA, of soluble human CD160, of soluble human LIGHT, and of soluble human TNFβ on surface human HVEM-transfected cells was analysed by FACS analysis. To this end, stable human full-length HVEM-transfected HEK293F cells were put at 10×10⁶ cells/mL in ice-chilled phosphate-buffered saline containing 0.1% BSA (Sigma)/0.05% NaN₃ (PBS/BSA/NaN₃) supplemented with 50 μg/mL human IgGs (blocking possible Fcγ receptors; Sigma) for 10 minutes at 4° C. Then, 10 μL/tube (i.e., 0.1×10⁶ cells) of these cells were incubated with or without 100 μL purified chimeric mouse/human anti-HVEM antibody at 10 μg/mL/tube or a human IgG4/κ (Sigma) negative isotype control at 10 μg/mL/tube for 30 minutes at 4° C. After this (i.e., without washing), cells were subsequently incubated with 1 μg/mL soluble biotinylated human BTLA (Sino Biological Inc), with 10 μg/mL soluble his-tagged human CD160 (Sino Biological Inc), with 1 μg/mL soluble his-tagged human LIGHT (Sino Biological Inc), or with 0.1 μg/mL soluble biotinylated human TNFβ (Sino Biological Inc) in PBS/BSA/NaN₃ for 30 minutes at 4° C. After extensive washing in PBS/BSA/NaN₃, cells were incubated with 1:200 diluted PE-conjugated streptavidin (detection BTLA and TNFβ; Jackson ImmunoResearch) or with biotinylated mouse anti-his antibody (detection CD160 and LIGHT; R&D Systems) at 10 μg/mL for 30 minutes at 4° C. After extensive washing in PBS/BSA/NaN₃, cells were incubated with 1:200 diluted PE-conjugated streptavidin (detection CD160 and LIGHT; Jackson ImmunoResearch) for 30 minutes at 4° C. After extensive washing in PBS/BSA/NaN₃, cells were fixed in 4% formaldehyde in PBS/BSA/NaN₃ for 30 minutes at 4° C. Binding of ligands BTLA, CD160, LIGHT and TNFβ on membrane human HVEM was measured using a flow cytometer (model FACSCalibur; BD Biosciences). For comparison, purified BTLA/HVEM blocking mouse anti-human HVEM antibody counterparts no. 36H12, 45H6, 48H6, 11H7, and 49G4 at 10 μg/mL/tube and a mouse IgG1 (BD Biosciences) negative isotype control at 10 μg/mL/tube were run in parallel.

[3] = molecular target: T1, membrane-bound full-length human HVEM …; assay: FACS, biotinylated TNFβ pre-bound, then Ab 20 µg/mL
Experimental: as §1

[4] = molecular target: T1, membrane-bound full-length human HVEM …; assay: FACS, Ab 10 µg/mL then biotinylated BTLA on HVEM-HEK293F
Experimental: as §2

[5] = molecular target: T1, membrane-bound full-length human HVEM …; assay: FACS titration on HVEM-HEK293F, half-maximum binding
Experimental: In order to determine the relative binding affinity of purified BTLA/HVEM blocking chimeric mouse/human anti-human HVEM antibodies no. 36H12, 45H6, 48H6, 11H7, and 49G4 for human HVEM, FACS analysis was used.
To this end, stable human full-length HVEM-transfected HEK293F cells (clone no. 128; see Example 1(a) above) were put at 10×10⁶ cells/mL in ice-chilled PBS containing 0.1% BSA (Sigma)/0.05% NaN₃ (PBS/BSA/NaN₃) supplemented with 50 μg/mL human IgGs (blocking possible Fcγ receptors; Sigma) for 10 minutes at 4° C. Then, 10 μL/tube (i.e., 0.1×10⁶ cells) of these cells were incubated with or without 100 μL titrated (in PBS/BSA/NaN₃) purified BTLA/HVEM blocking chimeric mouse/human anti-human HVEM antibody/tube for 30 minutes at 4° C. After extensive washing in PBS/BSA/NaN₃, cells were subsequently incubated with 1:200 diluted PE-conjugated goat anti-human IgG Fcγ-specific antibodies (Jackson ImmunoResearch) for 30 minutes at 4° C. After extensive washing in PBS/BSA/NaN₃, cells were fixed in 4% formaldehyde in PBS/BSA/NaN₃ for 30 minutes at 4° C. Binding (geo-mean fluorescence intensity) of chimeric mouse/human anti-human HVEM antibodies no. 36H12, 45H6, 48H6, 11H7, and 49G4 on membrane human HVEM was measured using a flow cytometer (FACSCalibur; BD Biosciences). For comparison, purified BTLA/HVEM blocking mouse anti-human HVEM antibody counterparts no. 36H12, 45H6, 48H6, 11H7, and 49G4 were run in parallel, and their binding was monitored as described in Example 2 (a).

[6] = molecular target: T2, membrane-bound 'CRD1 truncated' human …; assay: FACS, undiluted hybridoma supernatant, CRD1 truncated HVEM on HEK293F
Experimental: Generation of human ‘full-length’ HVEM-transfected HEK293F cells (clone no. 128) is described in Example 1a. […] After 72 hours, surface human HVEM expression on transfected cells was analysed by FACS analysis. To this end, stable human full-length HVEM-transfected HEK293F cells and transient human ‘CRD1 truncated’ HVEM-transfected HEK293F cells were put at 10×10⁶ cells/mL in ice-chilled phosphate-buffered saline containing 0.1% BSA (Sigma)/0.05% NaN₃ (PBS/BSA/NaN₃) supplemented with 50 μg/mL human IgGs (blocking of possible Fcγ receptors; Sigma) for 10 minutes at 4° C. Then, 10 μL/tube (i.e., 0.1×10⁶ cells) of these cells were incubated with 100 μL undiluted hybridoma supernatant/tube for 30 minutes at 4° C. Phycoerythrin (PE)-conjugated mouse anti-human HVEM antibody (clone eBioHVEM-122; eBioscience) at 1:20 was run as a positive control antibody. After extensive washing in PBS/BSA/NaN₃, cells were subsequently incubated with 1:200 diluted PE-conjugated goat anti-mouse IgG Fcγ-specific antibodies (Jackson ImmunoResearch) for 30 minutes at 4° C. After extensive washing in PBS/BSA/NaN₃, cells were fixed in 2% formaldehyde in PBS/BSA/NaN₃ for 30 minutes at 4° C. Binding of antibodies was measured using a flow cytometer (model FACSCalibur; BD Biosciences).

Binder	% displacement of pre-bound ligand [1] [%]	% blocking of ligand binding [2] [%]	% displacement of pre-bound ligand [3] [%]	% blocking of ligand binding [4] [%]	EC50 [5] [µg/mL]	binding result [6]
chimeric mouse/human IgG4/kappa anti-human HVEM antibody no. 11H7 (antibody, V domains shown, 40/41 within the entry; Stabilized human IgG4 (S239P) already in the entry; also called chimeric 11H7) VH: QVQLKQSGPGLVQPSQSLSITCTVSGFSLTIYGVHWVRQSPGKGLEWLGVIWSGGSTDYNAAFISRLSISKDNSKSQVFFKMNSLQANDTAIYYCARRDYGSRSFYYAMDYWGQGTSVTVSS VL: EIVLTQSPALMAASPGEKVTITCSVSSSISSSNLHWYQQKSETSPKPWIYGTSNLASGVPVRFSGSGSGTSYSLTISSMEAEDAATYYCQQWSSYPLTFGGGTKLEIKR	> 95	> 55	< 20	> 95	0.63	–
mouse anti-human HVEM antibody no. 45H6 (antibody, mouse IgG1, V domains shown, mouse IgG1/kappa; also called 45H6 (mouse)) VH: DVQLVESGGGLVQPGGSRKLSCAASGFTFSSFGMHWVRQAPEKGLEWVAYISSGNSNIYYVDTVKGRFTISRDNPKNTLFLQMTSLRSEDTAMYYCARKRAYGDYSGFSMDYWGQGTSVTVSS VL: DIVMTQSQKFMSTSVGDRVSVTCKASQNVDTNVAWYQQKPGQSPKALIYSASYRYSGVPDRFTGSGSGTDFTLTISNVQSEDLAEYFCQQYNKFPLTFGGGTKLEIK	–	–	–	> 95	0.26	no binding
mouse anti-human HVEM antibody no. 49G4 (antibody, mouse IgG1, V domains shown, mouse IgG1/kappa; also called 49G4 (mouse)) VH: EVQLQQSGAELVKPGASVKLSCRASGFNIKDTYMHWVKQRPEQGLEWIGRIDPARGNTKYDPKFQGKATITADTSSNTAYLQLSSLTSEDTAVYYCASAMDYWGQGTSVTVSS VL: DVLMTQTPLSLPVSLGDQASISCRSSQSIVHSNGNTYLEWFLQKPGQSPKLLIYKVSNRFSGVPDRFSGSGSGTDFTLKISRVEAEDLGVYYCFQGSHVPLTFGAGTKLELK	–	> 85	–	> 95	0.266	no binding
mouse anti-human HVEM antibody no. 11H7 (antibody, mouse IgG1, V domains shown, mouse IgG1/kappa; also called 11H7 (mouse)) VH: QVQLKQSGPGLVQPSQSLSITCTVSGFSLTIYGVHWVRQSPGKGLEWLGVIWSGGSTDYNAAFISRLSISKDNSKSQVFFKMNSLQANDTAIYYCARRDYGSRSFYYAMDYWGQGTSVTVSS VL: EIVLTQSPALMAASPGEKVTITCSVSSSISSSNLHWYQQKSETSPKPWIYGTSNLASGVPVRFSGSGSGTSYSLTISSMEAEDAATYYCQQWSSYPLTFGGGTKLEIK	–	> 60	–	> 95	0.532	no binding

— patent publication US20230052646A1 (JJP BIOLOGICS SP Z O O, published 2023)
